Reference: publication PMC8430805

Assays:
[1] = target: LysB endolysin (putative N-acetylmuramoyl-L-alanine amidase) from the prophage of Clostridium botuli (Clostridium botulinum E3 strain Alaska E43 (prophage)); assay: AUC
[2] = target: LysB endolysin (putative N-acetylmuramoyl-L-alanine amidase) from the prophage of Clostridium botuli (Clostridium botulinum E3 strain Alaska E43 (prophage)); assay: SEC

## LysB endolysin (putative N-acetylmuramoyl-L-alanine amidase) from the prophage of Clostridium botuli (enzyme)
[1]
  stoichiometry N: 2
[2]
  stoichiometry N: 2
